From patent US20210238292A1 (VACCINEX, published 2021)
Residue numbers refer to the chain shown, from its start. Where two headings read alike, the source gives them in different places. Values belong to the molecule of their own block, whether it stands above or below them.

What was measured:
[1] = biological target: human CCR8 (C-C chemokine receptor type 8) expressed on cells (human) (UniProt P51685); assay: flow cytometry competition on Raji-CCR8 cells; competitor: fluorescently-conjugated BIOLEGEND anti-human CCR8 antibody at a single concentration
[2] = biological target: T1, human CCR8 (C-C chemokine receptor type 8) expressed on cells (human, UniProt P51685 1-355); assay: on-cell affinity, flow cytometry on 293T cells expressing human CCR8
T1 construct: also called HuCCR8

[3] = biological target: T2, cynomolgus monkey CCR8 expressed on cells (cynomolgus monkey, UniProt G7NYJ2 1-355); assay: flow cytometry, CyCCR8-293T cells, fold geomean over secondary alone
T2 construct: whole, on cells; also called cyno CCR8; CyCCR8

[4] = biological target: T1, human CCR8 (C-C chemokine receptor type …); assay: on-cell affinity, flow cytometry on 293T cells expressing human CCR8; remark: listed apart in the source
[5] = biological target: T3, Cynomolgus CCR8-ECD-Fc (cynomolgus monkey); assay: binding to CyCCR8-ECD-Fc protein, OD 450-570 nm
T3 construct: also called CyCCR8-ECD-Fc; Cynomolgus CCR8-Fc
T3 chain: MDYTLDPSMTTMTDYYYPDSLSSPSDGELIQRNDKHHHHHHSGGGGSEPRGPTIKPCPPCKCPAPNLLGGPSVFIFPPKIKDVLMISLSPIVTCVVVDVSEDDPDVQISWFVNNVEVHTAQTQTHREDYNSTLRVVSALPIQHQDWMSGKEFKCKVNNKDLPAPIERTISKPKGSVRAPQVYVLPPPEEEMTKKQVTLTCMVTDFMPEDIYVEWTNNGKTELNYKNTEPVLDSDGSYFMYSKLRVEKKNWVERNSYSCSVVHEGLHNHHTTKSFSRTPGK

[6] = biological target: T1, human CCR8 (C-C chemokine receptor type …); assay: flow cytometry, HuCCR8-293T cells, fold geomean over secondary alone
[7] = biological target: T4, Human CCR8-ECD-Fc (human); assay: binding to HuCCR8-ECD-Fc protein, OD 450-570 nm
T4 construct: also called HuCCR8-ECD-Fc; huCC8-ECD-Fc
T4 chain: T3 chain with P7L, M9V, M12V, S20I, L21F, G27A, R32T, D34G

[8] = biological target: T2, cynomolgus monkey CCR8 expressed on …; assay: on-cell affinity, flow cytometry on 293T cells expressing cyno CCR8
Target sequence in this assay (G7NYJ2 entry or part of it): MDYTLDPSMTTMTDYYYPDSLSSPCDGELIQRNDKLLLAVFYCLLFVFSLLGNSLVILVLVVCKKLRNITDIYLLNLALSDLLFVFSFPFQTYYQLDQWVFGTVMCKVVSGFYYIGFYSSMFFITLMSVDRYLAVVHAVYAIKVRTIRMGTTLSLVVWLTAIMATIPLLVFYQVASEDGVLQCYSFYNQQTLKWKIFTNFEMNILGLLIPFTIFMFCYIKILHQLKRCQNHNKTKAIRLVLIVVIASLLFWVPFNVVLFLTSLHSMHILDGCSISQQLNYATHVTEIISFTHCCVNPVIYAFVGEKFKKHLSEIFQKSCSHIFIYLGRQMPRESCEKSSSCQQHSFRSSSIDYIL

[9] = biological target: T4, Human CCR8-ECD-Fc; assay: binding to HuCCR8-ECD-Fc protein, OD 450-570 nm
[10] = biological target: T1, human CCR8 (C-C chemokine receptor type …); assay: flow cytometry, HuCCR8-293T cells, fold geomean over secondary alone; remark: listed apart in the source
[11] = biological target: T3, Cynomolgus CCR8-ECD-Fc; assay: binding to CyCCR8-ECD-Fc protein, OD 450-570 nm
[12] = biological target: T1, human CCR8 (C-C chemokine receptor type …); assay: flow cytometry, HuCCR8-293T cells, fold geomean over secondary alone; remark: listed apart in the source
[13] = biological target: T2, cynomolgus monkey CCR8 expressed on …; assay: flow cytometry, CyCCR8-293T cells, fold geomean over secondary alone; remark: listed apart in the source
[14] = biological target: T3, Cynomolgus CCR8-ECD-Fc; assay: binding to CyCCR8-ECD-Fc protein, OD 450-570 nm
[15] = biological target: T4, Human CCR8-ECD-Fc; assay: binding to HuCCR8-ECD-Fc protein, OD 450-570 nm
[16] = biological target: T2, cynomolgus monkey CCR8 expressed on …; assay: flow cytometry, CyCCR8-293T cells, fold geomean over secondary alone; remark: listed apart in the source
[17] = biological target: T4, Human CCR8-ECD-Fc; assay: binding to HuCCR8-ECD-Fc protein, OD 450-570 nm
[18] = biological target: T1, human CCR8 (C-C chemokine receptor type …); assay: flow cytometry, HuCCR8-293T cells, fold geomean over secondary alone; remark: listed apart in the source
[19] = biological target: T3, Cynomolgus CCR8-ECD-Fc; assay: binding to CyCCR8-ECD-Fc protein, OD 450-570 nm
[20] = biological target: T2, cynomolgus monkey CCR8 expressed on …; assay: flow cytometry, CyCCR8-293T cells, fold geomean over secondary alone; remark: listed apart in the source
[21] = biological target: T4, Human CCR8-ECD-Fc; assay: binding to HuCCR8-ECD-Fc protein, OD 450-570 nm
[22] = biological target: T1, human CCR8 (C-C chemokine receptor type …); assay: flow cytometry, HuCCR8-293T cells, fold geomean over secondary alone; remark: listed apart in the source
[23] = biological target: T3, Cynomolgus CCR8-ECD-Fc; assay: binding to CyCCR8-ECD-Fc protein, OD 450-570 nm

T1 sequence (P51685 whole entry): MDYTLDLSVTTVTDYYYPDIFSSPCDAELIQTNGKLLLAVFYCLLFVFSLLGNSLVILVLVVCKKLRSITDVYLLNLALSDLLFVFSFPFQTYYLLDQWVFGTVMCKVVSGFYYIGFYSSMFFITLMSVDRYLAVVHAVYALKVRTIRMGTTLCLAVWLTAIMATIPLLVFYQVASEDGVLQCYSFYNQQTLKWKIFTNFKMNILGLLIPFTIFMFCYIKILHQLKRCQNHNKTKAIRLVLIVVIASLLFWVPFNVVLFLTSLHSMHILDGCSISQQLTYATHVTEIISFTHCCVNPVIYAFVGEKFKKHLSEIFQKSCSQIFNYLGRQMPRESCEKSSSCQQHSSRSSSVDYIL
human CCR8 (C-C chemokine receptor type 8) expressed on cells (human), sequence (P51685 whole entry): as above

- Kd [2]: 1.06 nM
B1: anti-CCR8-parental-1 (antibody, V domains shown)
VH: QVQLVQSGAEVKKPGASVKVSCKASGYTFTSYYMHWVRQAPGQGLEWMGIINPSGGSTSYAQKFQGRVTMTRDTSTSTVYMELSSLRSEDTAVYYCARGVGNGFRFDYWGQGTLVT
VL: QSALTQPASVSGSPGQSITISCTGTSSDVGSYNLVSWYQQHPGKAPKLMIYEVSKRPSGVSNRFSGSKSGNTASLTISGLQAEDEADYYCSSYAGSSTFVVFGGGTKLTVL
notes: Full-length human IgG; also called parental antibody; H23188/L1037

- Kd [4]: 2.4 nM
- EC50 (read off the curve) [9]: ~40 ng/mL
- EC50 (read off the curve) [10]: ~0.6 µg/mL
- EC50 (read off the curve) [11]: ~40 ng/mL
- Kd [8]: 3.9 nM
B3: anti-CCR8-2-10 (antibody, V domains shown)
VH: EVQLVESGGGLVQPGRSLRLSCAASGFTFDDYAMHWVRQAPGKGLEWVSGISWNSGSIGYADSVKGRFTISRDNSKNSLYLQMNSLRAEDTALYYCARGRKSYRDSLRFDYWGQGTLVTVSS
VL: QSVLTQPPSVSAAPGQKVTISCSGTSSNIGKNFVSWYQQLPGTAPKLLIYDDNKRPSGIPDRFSGSKSATSATLGITGLQTGDGADYYCGTWDSSLSAWVFGGGTKLTVL
notes: Human IgG

- EC50 (read off the curve) [16]: ~0.4 µg/mL
- Kd [4]: 1.5 nM
- EC50 (read off the curve) [17]: ~40 ng/mL
- Kd [8]: 3.2 nM
- EC50 (read off the curve) [18]: ~0.4 µg/mL
- EC50 (read off the curve) [19]: ~40 ng/mL
B5: anti-CCR8-2-9 (antibody, V domains shown)
VH: B3 VH
VL: QSVLTQPPSVSGAPGQRVTISCTGSGSNIGNNYVSWYQQLPGTAPKMLIYDNTRRPSGIPDRFSGSKSDTSATLGITGLQTGDEADYYCGAWDSSLRMWVFGGGTKLTVL
notes: Human IgG

- EC50 (read off the curve) [20]: ~1 µg/mL
- EC50 (read off the curve) [21]: ~40 ng/mL
- Kd [4]: 1.3 nM
- EC50 (read off the curve) [22]: ~0.4 µg/mL
- Kd [8]: 3.5 nM
- EC50 (read off the curve) [23]: ~40 ng/mL
B6: anti-CCR8-2-7 (antibody, V domains shown)
VH: B3 VH with K101D, D105K
VL: B5 VL
notes: Human IgG

Continued, molecule first:

Molecule: Biolegend control (antibody)
- IC50 (read off the curve) [1]: 0.03 µg/mL

B2: anti-CCR8-2-3 (antibody, V domains shown)
VH: B3 VH
VL: QSVLTQPPSVSAAPGQKVTISCSGSSSNIGNNYVSWYQQLPGTAPKLLIYDNNKRPSGIPDRFSGSKSGTSATLGITGLQTGDEADYYCGTWDSSLSAWVFGGGTKLT
notes: Human IgG from a mammalian expression vector in CHO cells; also called heavy chain H23499
- EC50 (read off the curve) [3]: ~1 µg/mL
- Kd [4]: 2.5 nM
- EC50 (read off the curve) [5]: ~30 ng/mL
- EC50 (read off the curve) [6]: ~0.4 µg/mL
- EC50 (read off the curve) [7]: ~30 ng/mL
- Kd [8]: 3.9 nM

B4: anti-CCR8-2-8 (antibody, V domains shown)
VH: B3 VH with K101R
VL: B5 VL
notes: Human IgG
- EC50 (read off the curve) [12]: ~0.4 µg/mL
- EC50 (read off the curve) [13]: ~1 µg/mL
- Kd [4]: 1.5 nM
- EC50 (read off the curve) [14]: ~40 ng/mL
- Kd [8]: 2.5 nM
- EC50 (read off the curve) [15]: ~40 ng/mL
